Laboratory results: patent US20230114801A1 (SYSTIMMUNE, published 2023)

B1: SI-38P11 (other)
chain 1: QIVLSQSPAILSASPGEKVTMTCRASSSVSYIHWFQQKPGSSPKPWIYATSNLASGVPVRFSGSGSGTSYSLTISRVEAEDAATYYCQQWTSNPPTFGGGTKLTVLGGGGSGGGGSGGGGSGGGGSQVQLQQPGAELVKPGASVKMSCKASGYTFTSYNMHWVKQTPGRGLEWIGAIYPGNGDTSYNQKFKGKATLTADKSSSTAYMQLSSLTSEDSAVYYCARSTYYGGDWYFNVWGAGTTVTVSSGGGGSGGGGSEVQLVESGGGLVQPGGSLRLSCAASGFTISTNAMSWVRQAPGKGLEWIGVITGRDITYYASWAKGRFTISRDNSKNTLYLQMNSLRAEDTAVYYCARDGGSSAITSNNIWGQGTLVTVSSASTKGPSVFPLAPSSKSTSGGTAALGCLVKDYFPEPVTVSWNSGALTSGVHTFPAVLQSSGLYSLSSVVTVPSSSLGTQTYICNVNHKPSNTKVDKRVEPKSCDKTHTCPPCPAPEAAGGPSVFLFPPKPKDTLMISRTPEVTCVVVDVSHEDPEVKFNWYVDGVEVHNAKTKPREEQYNSTYRVVSVLTVLHQDWLNGKEYKCAVSNKALPAPIEKTISKAKGQPREPQVYTLPPSRDELTKNQVSLSCAVKGFYPSDIAVEWESNGQPENNYKTTPPVLDSDGSFFLVSKLTVDKSRWQQGNVFSCSVMHEALHNHYTQKSLSLSPGGGGGSGGGGSDVVMTQSPSSVSASVGDRVTITCQASQNIRTYLSWYQQKPGKAPKLLIYAAANLASGVPSRFSGSGSGTDFTLTISDLEPGDAATYYCQSTYLGTDYVGGAFGGGTKLTVLGGGGSGGGGSGGGGSGGGGSEVQLVESGGGLVQPGGSLRLSCTASGFTISSYHMQWVRQAPGKGLEYIGTISSGGNVYYASSARGRFTISRPSSKNTVDLQMNSLRAEDTAVYYCARDSGYSDPMWGQGTLVTVSS
chain 2: ENVLTQSPASLSASPGERVTITCSASSSVSYMHWYQQKPGQAPKLWIYDTSKLASGVPSRFSGSGSGNDHTLTISSMEPEDFATYYCFQGSVYPFTFGQGTKVTVLGGGGSGGGGSGGGGSGGGGSQVTLKESGPGLVQPGQTLSLTCAFSGFSLSTSGMGVGWIRQPPGKGLEWLAHIWWDDDKRYNPALKSRLTISKDTSKNQVYLQMNSLDAEDTAVYYCARMELWSYYFDYWGQGTLVTVSSGGGGSGGGGSDVVMTQSPSTLSASVGDRVTINCQASESISSWLAWYQQKPGKAPKLLIYEASKLASGVPSRFSGSGSGTEFTLTISSLQPDDFATYYCQGYFYFISRTYVNSFGGGTKVEIKRTVAAPSVFIFPPSDEQLKSGTASVVCLLNNFYPREAKVQWKVDNALQSGNSQESVTEQDSKDSTYSLSSTLTLSKADYEKHKVYACEVTHQGLSSPVTKSFNRGECGGDKTHTCPPCPAPEAAGGPSVFLFPPKPKDTLMISRTPEVTCVVVDVSHEDPEVKFNWYVDGVEVHNAKTKPREEQYNSTYRVVSVLTVLHQDWLNGKEYKCAVSNKALPAPIEKTISKAKGQPREPQVYTLPPSRDELTKNQVSLWCLVKGFYPSDIAVEWESNGQPENNYKTTPPVLDSDGSFFLYSKLTVDKSRWQQGNVFSCSVMHEALHNRFTQKSLSLSPGGGGGSGGGGSDIQMTQSPSTLSASVGDRVTITCQASQSISSHLNWYQQKPGKAPKLLIYKASTLASGVPSRFSGSGSGTEFTLTISSLQPDDFATYYCQQGYSWGNVDNVFGGGTKVTVLGGGGSGGGGSGGGGSGGGGSEVQLLESGGGLVQPGGSLSLSCAASGFSFSSGYDMCWVRQAPGKGLEWIACIAAGSAGITYDANWAKGRFTISRDNSKNTLYLQMNSLRAEDTAVYYCARSAFSFDYAMDLWGQGTLVTVSS
notes: penta-miniGNC; D1 αCD20 scFv, D2 αCD19, D3 αCD3 Fab without additional disulphide, D4 α4-1BB, D5 αPD-L1 scFv
B2: SI-76PM1 (other)
chain 1: QIVLSQSPAILSASPGEKVTMTCRASSSVSYIHWFQQKPGSSPKPWIYATSNLASGVPVRFSGSGSGTSYSLTISRVEAEDAATYYCQQWTSNPPTFGGGTKLTVLGGGGSGGGGSGGGGSGGGGSQVQLQQPGAELVKPGASVKMSCKASGYTFTSYNMHWVKQTPGRGLEWIGAIYPGNGDTSYNQKFKGKATLTADKSSSTAYMQLSSLTSEDSAVYYCARSTYYGGDWYFNVWGAGTTVTVSSGGGGSGGGGSEVQLVESGGGLVQPGGSLRLSCAASGFTISTNAMSWVRQAPGKCLEWIGVITGRDITYYASWAKGRFTISRDNSKNTLYLQMNSLRAEDTAVYYCARDGGSSAITSNNIWGQGTLVTVSSASTKGPSVFPLAPSSKSTSGGTAALGCLVKDYFPEPVTVSWNSGALTSGVHTFPAVLQSSGLYSLSSVVTVPSSSLGTQTYICNVNHKPSNTKVDKRVEPKSCDKTHTCPPCPAPEAAGGPSVFLFPPKPKDTLMISRTPEVTCVVVDVSHEDPEVKFNWYVDGVEVHNAKTKPREEQYNSTYRVVSVLTVLHQDWLNGKEYKCAVSNKALPAPIEKTISKAKGQPREPQVYTLPPSRDELTKNQVSLSCAVKGFYPSDIAVEWESNGQPENNYKTTPPVLDSDGSFFLVSKLTVDKSRWQQGNVFSCSVMHEALHNHYTQKSLSLSPGGGGGSGGGGSDVVMTQSPSSVSASVGDRVTITCQASQNIRTYLSWYQQKPGKAPKLLIYAAANLASGVPSRFSGSGSGTDFTLTISDLEPGDAATYYCQSTYLGTDYVGGAFGGGTKLTVLGGGGSGGGGSGGGGSGGGGSEVQLVESGGGLVQPGGSLRLSCTASGFTISSYHMQWVRQAPGKGLEYIGTISSGGNVYYASSARGRFTISRPSSKNTVDLQMNSLRAEDTAVYYCARDSGYSDPMWGQGTLVTVSS
chain 2: ENVLTQSPASLSASPGERVTITCSASSSVSYMHWYQQKPGQAPKLWIYDTSKLASGVPSRFSGSGSGNDHTLTISSMEPEDFATYYCFQGSVYPFTFGQGTKVTVLGGGGSGGGGSGGGGSGGGGSQVTLKESGPGLVQPGQTLSLTCAFSGFSLSTSGMGVGWIRQPPGKGLEWLAHIWWDDDKRYNPALKSRLTISKDTSKNQVYLQMNSLDAEDTAVYYCARMELWSYYFDYWGQGTLVTVSSGGGGSGGGGSDVVMTQSPSTLSASVGDRVTINCQASESISSWLAWYQQKPGKAPKLLIYEASKLASGVPSRFSGSGSGTEFTLTISSLQPDDFATYYCQGYFYFISRTYVNSFGCGTKVEIKRTVAAPSVFIFPPSDEQLKSGTASVVCLLNNFYPREAKVQWKVDNALQSGNSQESVTEQDSKDSTYSLSSTLTLSKADYEKHKVYACEVTHQGLSSPVTKSFNRGECGGDKTHTCPPCPAPEAAGGPSVFLFPPKPKDTLMISRTPEVTCVVVDVSHEDPEVKFNWYVDGVEVHNAKTKPREEQYNSTYRVVSVLTVLHQDWLNGKEYKCAVSNKALPAPIEKTISKAKGQPREPQVYTLPPSRDELTKNQVSLWCLVKGFYPSDIAVEWESNGQPENNYKTTPPVLDSDGSFFLYSKLTVDKSRWQQGNVFSCSVMHEALHNRFTQKSLSLSPGGGGGSGGGGSDIQMTQSPSTLSASVGDRVTITCQASQSISSHLNWYQQKPGKAPKLLIYKASTLASGVPSRFSGSGSGTEFTLTISSLQPDDFATYYCQQGYSWGNVDNVFGGGTKVTVLGGGGSGGGGSGGGGSGGGGSEVQLLESGGGLVQPGGSLSLSCAASGFSFSSGYDMCWVRQAPGKGLEWIACIAAGSAGITYDANWAKGRFTISRDNSKNTLYLQMNSLRAEDTAVYYCARSAFSFDYAMDLWGQGTLVTVSS
notes: penta-miniGNC; as SI-38P11 but with an additional disulphide ('staple') in the D3 αCD3 Fab VH/VL

Columns and labels:
Experiment in all cases: antigen binding kinetics; method not given
human PD-L1 = biological target: T1, human PD-L1 (human, UniProt Q9NZQ7 19-238)
T1 construct: Soluble antigen in Octet; bought; also called human PD-L1 (Acro PD1-H5229)

CD19 = biological target: T2, CD19 (UniProt P15391 20-291, limits assumed)
T2 sequence (looked up): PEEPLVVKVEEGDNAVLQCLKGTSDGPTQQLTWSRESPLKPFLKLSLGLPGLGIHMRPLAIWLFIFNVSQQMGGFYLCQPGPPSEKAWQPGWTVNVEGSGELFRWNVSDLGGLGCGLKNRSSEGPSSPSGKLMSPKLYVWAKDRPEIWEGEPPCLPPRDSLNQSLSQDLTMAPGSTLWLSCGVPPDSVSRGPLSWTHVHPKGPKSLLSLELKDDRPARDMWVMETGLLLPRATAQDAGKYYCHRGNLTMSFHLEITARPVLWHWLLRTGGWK

human CD3 = biological target: T3, human CD3 (human, UniProt P07766 23-126; P04234 22-105)
T3 construct: also called His-tagged human CD3; human CD3 (Acro CDD-H52W1)

human 4-1BB = biological target: T4, human 4-1BB (human, UniProt Q07011 24-186, limits assumed)
T4 construct: Soluble antigen in Octet; construct not described

Binder | Kd (human PD-L1) [nM] | Kd (CD19) [nM] | Kd (human CD3) [nM] | Kd (human 4-1BB) [nM]
B1 | 1.1 | 1.89 | 5.23 | 14.8
B2 | 1.47 | 3.3 | 3.22 | 22.4
